The target in series [1] is T1, RecA wild type (Escherichia coli, UniProt P0A7G6 2-353). Briefly: CE-LIFP; ATP, 10 mM Mg2+; 3.0 uM RecA; mainly unsaturated filament; 20 mM Tris-HCl pH 7.4, 10 mM Mg2+, 10 nM oligo, 0-3.0 uM RecA, 37 C 10 min; CE in 25 mM Tris, 192 mM glycine, 0.5 mM Ca2+, pH 8.3, room temperature. The settings on record: protein: recombinant; label: 5'-TMR.
The target of series [2] is T1, RecA wild type. Briefly: CE-LIFP; 0.01-3.0 mM ATP; 16 uM RecA; four complexes; 20 mM Tris-HCl pH 7.4, 10 mM Mg2+, 10 nM oligo, 0-3.0 uM RecA, 37 C 10 min; CE in 25 mM Tris, 192 mM glycine, 0.5 mM Ca2+, pH 8.3, room temperature. The settings on record: protein: recombinant; label: 5'-TMR.
Series [3] deals with T1, RecA wild type. Briefly: CE-LIFP; 0.1 mM ATPgS, 10 mM Mg2+; 3.0 uM RecA; saturated filament; 20 mM Tris-HCl pH 7.4, 10 mM Mg2+, 10 nM oligo, 0-3.0 uM RecA, 37 C 10 min; CE in 25 mM Tris, 192 mM glycine, 0.5 mM Ca2+, pH 8.3, room temperature. The following applies: protein: recombinant; label: 5'-TMR.
Series [4] deals with T1, RecA wild type. Briefly: electron microscopy; 0.1 mM ATPgS; 3.0 uM RecA, 300 nM DNA; saturated filament; 20 mM Tris-HCl pH 7.4, 10 mM Mg2+, 10 nM oligo, 0-3.0 uM RecA, 37 C 10 min; CE in 25 mM Tris, 192 mM glycine, 0.5 mM Ca2+, pH 8.3, room temperature. The following applies: protein: recombinant.
Series [5] deals with T1, RecA wild type. Briefly: CE-LIFP; ATP, 10 mM Mg2+; six complexes (1-6 RecA), mainly 1:4 DNA:RecA at 1.0 mM ATP; 20 mM Tris-HCl pH 7.4, 10 mM Mg2+, 10 nM oligo, 0-3.0 uM RecA, 37 C 10 min; CE in 25 mM Tris, 192 mM glycine, 0.5 mM Ca2+, pH 8.3, room temperature. The settings on record: protein: recombinant; label: 5'-TMR.
Series [6] concerns the target T1, RecA wild type. Briefly: CE-LIFP; 0.01-3.0 mM ATP; 16 uM RecA; five complexes; 20 mM Tris-HCl pH 7.4, 10 mM Mg2+, 10 nM oligo, 0-3.0 uM RecA, 37 C 10 min; CE in 25 mM Tris, 192 mM glycine, 0.5 mM Ca2+, pH 8.3, room temperature. The following applies: protein: recombinant; label: 5'-TMR.

T1 sequence (P0A7G6 2-353): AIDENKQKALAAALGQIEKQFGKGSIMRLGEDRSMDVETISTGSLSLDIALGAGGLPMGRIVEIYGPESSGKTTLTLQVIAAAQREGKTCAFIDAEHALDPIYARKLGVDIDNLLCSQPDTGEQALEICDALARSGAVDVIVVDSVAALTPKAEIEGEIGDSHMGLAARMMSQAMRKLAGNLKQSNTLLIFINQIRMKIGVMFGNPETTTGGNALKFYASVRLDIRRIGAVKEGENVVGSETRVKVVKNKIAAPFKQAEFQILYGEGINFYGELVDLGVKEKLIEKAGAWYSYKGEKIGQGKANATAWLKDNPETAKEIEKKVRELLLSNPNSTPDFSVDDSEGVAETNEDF

B1: TMR-ss175mer (ssDNA)
DNA: TCGTCTTTGGTATGTAGGTGGTCAACAATTTTAATTGCAGGGGCTTCGGCCCCTTACTTGAGGATAAATTATGTCTAATATTCAAACTGGCGCCGAGCGTATGCCGCATGACCTTTCCCATCTTGGCTTCCTTGCTGGTCAGATTGGTCGTCTTATTACCATTTCAACTACTCCG
Regarding B1, the binding result in the series with RecA wild type [1] is reported as “binds”.

TTTTTTTTTTTT (ssDNA) [TMR-T12]: the binding result with RecA wild type [2] is reported as “binds”.

B2: TMR-ss83mer (ssDNA)
DNA: TTTCCTACCTTAAGATCCTTCCAGTCTCCGCCGGCCAGTGTTACCCTTAGAGCTCATACCATTCGCCAATTTCTTCGCACGTT
On to B2, for which, in the series with RecA wild type [3], the binding result is reported as “binds”.

B3: ss83mer (ssDNA)
DNA: TTTCCTACCTTAAGATCCTTCCAGTCTCCGCCGGCCAGTGTTACCCTTAGAGCTCATACCATTCGCCAATTTCTTCGCACGTT
For the molecule B3, the binding result in the series with RecA wild type [4] is “binds”.

Consider TTTTTTTTTTTTTTTTTT (ssDNA) [TMR-T18], for which the binding result with RecA wild type [5] is “binds”.

For the molecule TTTTTTTTTTTTTTT (ssDNA) [TMR-T15], the binding result with RecA wild type [6] was “binds”.

Values taken from publication PMC5240526, “ATPase activity tightly regulates RecA nucleofilaments to promote homologous recombination”.
